Measured values taken from patent US20150377889.

How the values were obtained:
[1] = tested on: recombinant wild type galectin-3 phosphorylated in vitro by c-Abl (galectin-3 Tyr(P)-107), His-tagged
[2] = tested on: recombinant wild type full-length human galectin-3, His-tagged (unphosphorylated)
[3] = tested on: galectin-3 secreted by PC3M cells after EGF (and PDGF) treatment, tyrosine phosphorylated (galectin-3 Tyr(P)-107)
Chain of galectin-3 secreted by PC3M cells after EGF (and PDGF) treatment, tyrosine phosphorylated (galectin-3 Tyr(P)-107) (chain, as listed by the source): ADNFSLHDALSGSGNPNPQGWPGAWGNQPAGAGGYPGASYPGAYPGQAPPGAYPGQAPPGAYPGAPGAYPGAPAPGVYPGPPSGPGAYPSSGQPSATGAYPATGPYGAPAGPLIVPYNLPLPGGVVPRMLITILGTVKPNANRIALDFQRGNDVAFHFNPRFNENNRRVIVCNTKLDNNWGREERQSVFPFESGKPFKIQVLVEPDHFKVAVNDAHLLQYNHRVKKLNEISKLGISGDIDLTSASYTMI

Chain of recombinant wild type galectin-3 phosphorylated in vitro by c-Abl (galectin-3 Tyr(P)-107), His-tagged (chain, as listed by the source): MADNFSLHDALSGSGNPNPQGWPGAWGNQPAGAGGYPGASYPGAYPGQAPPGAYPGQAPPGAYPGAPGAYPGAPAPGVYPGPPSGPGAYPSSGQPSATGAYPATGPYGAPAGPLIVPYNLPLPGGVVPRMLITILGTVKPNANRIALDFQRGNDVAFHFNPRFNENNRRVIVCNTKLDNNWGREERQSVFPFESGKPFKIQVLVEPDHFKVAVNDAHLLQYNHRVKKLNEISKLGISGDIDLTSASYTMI

## phosphatase and tensin homolog (PTEN)
[1]
  dephosphorylation of galectin-3 Tyr(P)-107 (PTEN for 2 hr at 30 C, pTyr and Gal-3 blots): This was then proven by phosphorylating galectin-3 in vitro with active c-Abl and then treating it with PTEN

## active prostate specific antigen (PSA)
[2]
  cleavage of galectin-3 by PSA (2 h at room temperature, Western blot with anti-galectin-3 antibody): FIG. 1A demonstrated that phosphorylation of Tyr-107 blocks the cleavage of galectin-3 by PSA
[1]
  cleavage of galectin-3 by PSA (2 h at room temperature, Western blot with anti-galectin-3 and anti-Tyr(P) antibodies): phosphorylation of Tyr-107 blocks the cleavage of galectin-3 by PSA

## endogenous PSA secreted by LNCaP cells
[3]
  cleavage of secreted galectin-3 in conditioned medium of LNCaP/PC3M co-culture with and without EGF (Western blot with HL31): phosphorylation blocks cleavage of galectin-3 in conditioned medium
